Results taken from the nanobody polyreactivity screen of Harvey et al. (2022).

Test: yeast display, Sf9 membrane polyspecificity reagent, FACS + sequencing; frameworks hold sequencing errors
How it was run: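 In a synthetic yeast display library (Saccharomyces cerevisiae BJ5465), nanobody expression was induced with galactose for 36–48 hours. FACS gates were set low and high (top ~1%) using anti-HA fluorescence for expression and streptavidin fluorescence for binding of the Sf9 membrane reagent. Each polyreactivity label is drawn from the gate of origin.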

Sequence | polyreactivity (PSR sort gate)
QVQLVESGGALVQAGGSLRLSCAASGFILNKNVMGWYRQPPRKERELVAAITGSGGRTYYADSVKGRFTISRDNAKNTVYLQMNCLKPEDTAVFYCNALPGTQYNYWGQGTQVTVSS | high polyreactivity
QVQLVESGGGLVQAGGSLRLSCAASGRIFKYYAMGWYRQAPGKERELVAAITSSGVSTYADSVKGRFTISRDNAKNTVYLQMISLKPEDTAVYYCADDYVREGLGYDYWGQGTQVTVSS | low polyreactivity
QVQLVDSGGGLVQAGGSLGLSCAASGSIVKYYAMGWYRQAPGKEREVVAAISSIGGRPYYADSVKGRFTISRDNAKNTVYLQRNSLKPEDTSVFYCARRFRRTGESEYEYWGQGTQVTVSS | high polyreactivity
QVQLVESGGGLVQAGGSLRLSCAASGSTFPLYAMGWYRQAPGKERELVAAITSGGGNTYYADSVKGRFTISRDNAKNTVYLQMNSLKPEDTAVYYCAAVGGYKSYYSYEYDYWGQGTQVTVSS | low polyreactivity
QVQLVESGGGLVQAGGSLRLSCAASGSIFDWYAMGWYRKAPGTERELVAAINEGGGSTYYADSVKGRFTISRDNAKNTVYLQMNSLKPEDTAVYYCAAGDYYLQDNYWGQGTQVTVSS | low polyreactivity
QVQLVESGGGLVQAGGSLRVSCAASGSIFGYYAMGWSRQAPGKERELVAGINWSGGSTYADSVKGRFTISRDNAKNTVYLKMNSLKPEDTAVYYCYLRYRKYSSAKYDYWGQGTQVTVSS | high polyreactivity
QVQLLESGVGLVQAGGSLRLSSAASGRNFQQNAMAWYRQAPGKERELVAAINSRGGRTYYADSVKGRFTISRDNAKNTVYLQMNSLKPEDTAVYYCGAYFRNYRSYYYWGQGTQVTVSS | high polyreactivity
QVQLVESGGGLVQAGGSLRLSCAASGRTFHKNAMGWYRQAPGQERELVAAISGSGGSTYYADSVKGRFTISRDNAKNTVYLQMNSLKPEDTAVYYCAADSSYYEEDYWGQGNQVTVSS | high polyreactivity
QVQLVESGGGLVQAGGSLRLSCAASGGTFRYYAMGRYRPAPGKERDLVARIRYNGGSTYYADSVKGRFTISRDNAKNTVSLQMKSLKPEDTAVDYCAAVGRYPRTWMNYWGQGNQVTVSS | high polyreactivity
QVQLVESGGGLDQARGSLRLSCAASGFIFQIYAMGWYRQAPGKERELVAAITSRAGSTYYADSVKGRFTISRDNAKNTVYFQMNSLKPEDTAVYFCNKVFFLPTSRAYEYWGQGTQVTVSS | high polyreactivity
QVQLVESGGGLVQAGGSLRLSCAASGSTFFTNVMGWYRQAPGKERELVAVIRWRGSDTYYADSVKGRFTISRDNAKNTVYLQMNSLKPEDTAVYYCNAIESFYPTTGEQGYSYDYWGQGTQVTVSS | low polyreactivity
QVQLVESGAGIVQAGGSLRLSCAASGRTFNWYAMGLYTQPPGKERELVAAITYPGGTTYYADSVKGRFTISRDNAKNTVYLQMNSLKPEDTAVYYCAATFRYRRVTPTTRFNYWGQGTQVTVSS | high polyreactivity
QVQLVESGGGLVQAGGSLRLSCAASGSTFWTNAMGWYRQAPGKERELVAAISRSGGSTYYADSVKGRFTISRDNAKNTVYLQMNSLKPEDTAVYYCNAVLPYYRGSHYDYWGQGTQVTVSS | high polyreactivity
QVQLVESGGGLVQAGGSLRLSCAASGSILEPYAMGWYRQAPGKERELVATIRRGGSTYYADSVKGRFTISRDNAKNTVYLQMNSLKPEDTAVYYCAADRSVQVTFDYWGQGTQVTVSS | low polyreactivity
QVQLVESGGGLVQAGVSLRLTCAASGRIFRRYAMGWYRQAPGKEMEFVAAISYGGGSTYYADSVKGRFTISRDNAKNTVYLQMNSLKPEDTAVYYWNADEVVWGYNYWGQGTQVNVSS | low polyreactivity
QVQLVESGGGLVQAGGSLRLSCAASGSIFPYYAMGWYRQAPGKEREFVAAITISGGSTYYADSVKGRFTISRDNAKNTVYLQMNSLKPEDTAVYYCAVDRGISVGYTRFDYWGKGTQVTVSS | low polyreactivity

Sequence | polyreactivity (PSR sort gate)
QVQLVESGGGLVQAGGSLRLSCAASGRTFTSNAMGWSRQAPGKERELVAAIDDGGSTNYADSVKGRFTISRDNAKNTVYLQMNSLKPEDTAVYYCNAPITWQYRGFRRRFDYWGQGTQVTVSS | low polyreactivity
QVQLVESGGGLVQAGGSLRLSCAASGRIFSGYAMGWYIQAHGKERELVAAISSTGGTYYADSVKGRFTISRDNAKNTVYLQMNSLKPEDTAVYYFAARYRTLTKYYWGQGTQVTVSS | low polyreactivity
QVQLVESGGGLVQAGGSLRLSCAASGRTFYFYTLGWYRPAPGKERELVAAITSGGSTNYADSVKGRFTISRDNAKNTVYLQMNSLIPEDTAVYYCAAKYYRVYGYGLRMYYWGQGTQVTVSS | high polyreactivity
QVQLVESGGGLVQAGGSLRLSCAASGFTFGSYAMGWYRQAPGKERELVAAITRSGGGTYYADSVKGRFTISRDNAKNTVYLQMNSLKPEDTSVYYCAAGALQRGVYGFGYWGQGTQVTVSS | high polyreactivity
QVQLVESGGGLVQAGGSLRLSCAASGSIFPGNAMGWYRQEPRKERELVAAITKGDGSTNYADSVKGRFTISRDNAKNTVYLQLNSLITEDTAVYYCADRSRVFGYQGYDYWGQGTQVTVSS | low polyreactivity
QVQLVESGGGLVQAGGSLRLSCAASGITFVLNALGWYRQAPRKERELVARISWSTGSTYYADSVKGRFTISRDNAKNTVYLQMNSLKPEDTAVYYCAVDYNVQSLYVVVEGEYWGQGTQVTVSS | low polyreactivity
QVQLVDSGGGLVQAGGSLRVSCAASGNTFVTNAMGWSRQAPGKERELDAAITASVTSTYYADSVKGRFTISRDNAKITVYLQLNSLKPEDPAVYYCAAKTYSRKRVRMDYWGQGTQVTVSS | high polyreactivity
QVQLVESGGGLVQAGGSLRLSCAASGRTFFTYAMGWYRQAPGKERELVAAITYRGGGTYYADSVKGRFTISRDNAKNTVYLQMNSLKPEDTAVYYCAAEYWVGVYLYDYWGQGTQVTVSS | high polyreactivity
QVQLVESGGGLVQAGGSLRLSCAASGRTDAYYAMGWYRQAPGKERELVAAITRGGSTYYADSVKGRFTISRDNAKNTVYLQMNSLKPEDTAVYYCAAATSPYQDDYWGQGTQVTVSS | low polyreactivity
QVQLVESGGGLVQAGGSLRLSCAASGLIMRTNVMGWYRQPPGKERELVAAINFRTGSTYYADSVKGRFTISRDHAKNTVYLQMNSLKPEDTAVYYCAKAERRHYDYWGQGTQVTVSS | low polyreactivity
QVQLVESGGGLVQAGGSLRLSCAASGFTFQVYAMGWYRQAPGKERELVADITESGDSTYYADSVKGRFTISRDNAKNTVYLQMNSLKPEDTAVYYCAADGGWFWSLFYTFAFDYWGQGTQVTVSS | low polyreactivity
QVQLVESVGGLVQAGGSLRLSCAASGSIFNRYAMGRYRQAPGKERELVAAISTHTGTTYYADSVKGRFTISRDNAKNTVYLQMNSLKPEDTAVYYCAKRSRYGYGKSYDYWGQGTQVTVSS | high polyreactivity
QVQLVESGGGLVQAGGSLRLSCPASGSTFVKNAMGWYRQAPGKERELVAAITARGGSTFYADSVKGRFTISRDNAKNTVYLQMISLTPEDTSVYYCADNGPRTYRLKDDYWGQGTQVTVSS | high polyreactivity
QVQLVESGGGLVQAGGSLRLSCAASGRIFLVYAMGWYRQAPGKERELVAAISYSGGRTYYADSVKGRFTISRDNAKNTVYLQMNSLKPEDTAVYYCAAKRITYYGGGRFYYWGQGTQVTVSS | high polyreactivity
QVQLVESGGGLVQAGGSLRLSCAASGSTFSYNAMGWYRQAPGKERELVAAISRGDVSTYYADSVKGRFTISRDNAKNTVYLQMNSLKPEDSAVYYWAAYWYGSQYKWRYDYWGQGTQGTVSS | low polyreactivity
QVQLVESGGGLVQAGGSLRLSSAASGITFPRYAMGWYRQAPGKERELVAAITRRGGSTYYADSVKGRFTISRDNAKNTVYLQMNSLKPEDTAVYYCNTDMRYSYYLPGYDYWGQGTQVTVSS | high polyreactivity
